Results reported in patent publication US20230050846A1, “TREATMENT OF HEPATIC AND CARDIOVASCULAR DISORDERS” (LIFESEARCH, priority 2019, published 2023).

Molecular target: T1, human F1Fo-ATPase (Homo sapiens, UniProt P06576)
T1 construct: Human F1Fo-ATPase was purified from HepG2 cells by immunocapture; endogenous in cells; host or cells: HepG2 cells; complex isolated by immunocapture with anti-ATP synthase antibody 12F4AD8AF8 (#ab109867, Abcam)
Assay: F1-ATPase activity assay (NADH-coupled, purified enzyme)
Type: biochemical
Conditions: 1 μM
Text: The mature human IF1 protein (SEQ ID NO: 5) was chemically synthesized by GenScript (Piscataway, N.J., USA) at >80% purity. The peptides derived from the mature human IF1 sequence (IF1-1-60, IF1-10-56, IF1-10-47) were produced by BachemAG (Bubendorf, Switzerland) with >90% purity.
Human F1Fo-ATPase was purified from HepG2 cells by immunocapture using mouse monoclonal anti-ATP synthase antibody (12F4AD8AF8, #ab109867, Abcam) according to manufacturer's instructions.
Measurement of F1-ATPase activity was assayed as previously described. Briefly, 10 μg of F1Fo-ATPase was prepared into 50 μL of activity assay buffer (10 mM HEPES, 150 mM NaCl, 5 mM KCl, 5 mM MgCl2, 0.5 mM phosphoenolpyruvate, 250 μM NADH, 100 μM ATP, 20 U lactate dehydrogenase, 120 U pyruvate kinase). The mixture was incubated at 37° C. for 30 min. Then the F1-ATPase activity was measured in a 96-well microplate by adding 5 μL of the mixture (1 μg of F1Fo-ATPase per point) per well to 200 μL of activity assay buffer at 37° C., and by adding 5 μL of buffer with or without peptide (1 μM each). The reduction in the absorbance of NADH was measured at 340 nm for 5 min with a Varioskan™ Flash Multimode Reader (Thermo Fisher Scientific). A slope was calculated for each well and the results expressed as a percentage of the control slope.

B1: IF1: mature human IF1 protein (SEQ ID NO: 5), chemically synthesized, natural inhibitor of F1-ATPase (protein, listed as Homo sapiens)
chain: GSDQSENVDRGAGSIREAGGAFGKREQAEEERYFRAQSREQLAALKKHHEEEIVHHKKEIERLQKEIERHKQKIKMLKHDD
- inhibition of F1-ATPase activity as compared to control: 96%
